Data taken from patent US20070280939A1 (published 2007).

Target: T1, HLA-A2*0201 on T2 cells (human)
T1 construct: whole, on cells; also called HLA-A2 antigen
Experiment: T2 cell HLA-A2 stabilisation assay, flow cytometry
Method: T2 cells incubated with peptides were stained for the presence of cell surface HLA-A2 antigen using flow cytometry. Fluorescent intensity of stained cells was used to determine the ability of test peptides to bind and therefore stabilise HLA-A2. […] The RBI was calculated for each peptide from the obtained mean fluorescence intensity (MFI) of T2 cells incubated with test peptide divided by the MFI obtained from cells incubated with 100% DMSO alone.
T2 cells were washed twice in serum-free RPMI and incubated overnight at 37° C. in a round-bottomed 96 well plate in 50 μl serum-free RPMI containing 160,000 cells and final concentrations of 100, 10 and 1 μM of peptide. A negative control was provided by adding dilute DMSO without peptide to 2 wells. […] After washing in phosphate buffered saline (PBS) (Oxoid, UK) containing 0.1% bovine serum albumin (BSA) (Sigma, USA), the cells were incubated on ice for 30 minutes with 20 μl of mouse antihuman HLA-A2 antibody MA2.1 (ATCC, UK). Following washing with PBS+BSA, 100 μl of a 1/100 dilution of FITC labelled goat anti-mouse IgG (Sigma, USA) was added and the cells incubated for 30 minutes on ice. The cells were washed twice using PBS+BSA, fixed in 500 μl Isoton and allowed to normalise to room temperature for 20 minutes prior to analysis by flow cytometry.

Binder: ALASCFCFFC [PAP.15]
- binding result: no binding (tested: 100 µM, 10 µM and 1 µM)
